Laboratory results: IntAct's records for PubMed 17435768

B1: Heterogeneous nuclear ribonucleoprotein A1 (Homo sapiens), P09651-2 (parent)
chain: MSKSESPKEPEQLRKLFIGGLSFETTDESLRSHFEQWGTLTDCVVMRDPNTKRSRGFGFVTYATVEEVDAAMNARPHKVDGRVVEPKRAVSREDSQRPGAHLTVKKIFVGGIKEDTEEHHLRDYFEQYGKIEVIEIMTDRGSGKKRGFAFVTFDDHDSVDKIVIQKYHTVNGHNCEVRKALSKQEMASASSSQRGRSGSGNFGGGRGGGFGGNDNFGRGGNFSGRGGFGGSRGGGGYGGSGDGYNGFGNDGSNFGGGGSYNDFGNYNNQSSNFGPMKGGNFGGRSSGPYGGGGQYFAKPRNQGGYGGSSSSSSYGSGRRF
B2: Heterogeneous nuclear ribonucleoprotein M (Homo sapiens), P52272 (parent)
chain: MAAGVEAAAEVAATEIKMEEESGAPGVPSGNGAPGPKGEGERPAQNEKRKEKNIKRGGNRFEPYANPTKRYRAFITNIPFDVKWQSLKDLVKEKVGEVTYVELLMDAEGKSRGCAVVEFKMEESMKKAAEVLNKHSLSGRPLKVKEDPDGEHARRAMQKVMATTGGMGMGPGGPGMITIPPSILNNPNIPNEIIHALQAGRLGSTVFVANLDYKVGWKKLKEVFSMAGVVVRADILEDKDGKSRGIGTVTFEQSIEAVQAISMFNGQLLFDRPMHVKMDERALPKGDFFPPERPQQLPHGLGGIGMGLGPGGQPIDANHLNKGIGMGNIGPAGMGMEGIGFGINKMGGMEGPFGGGMENMGRFGSGMNMGRINEILSNALKRGEIIAKQGGGGGGGSVPGIERMGPGIDRLGGAGMERMGAGLGHGMDRVGSEIERMGLVMDRMGSVERMGSGIERMGPLGLDHMASSIERMGQTMERIGSGVERMGAGMGFGLERMAAPIDRVGQTIERMGSGVERMGPAIERMGLSMERMVPAGMGAGLERMGPVMDRMATGLERMGANNLERMGLERMGANSLERMGLERMGANSLERMGPAMGPALGAGIERMGLAMGGGGGASFDRAIEMERGNFGGSFAGSFGGAGGHAPGVARKACQIFVRNLPFDFTWKMLKDKFNECGHVLYADIKMENGKSKGCGVVKFESPEVAERACRMMNGMKLSGREIDVRIDRNA

Variants of: B1
Settings: with tnpo1_human TNPO1, Q92973
Chain of tnpo1_human TNPO1, Q92973 (Q92973 whole entry): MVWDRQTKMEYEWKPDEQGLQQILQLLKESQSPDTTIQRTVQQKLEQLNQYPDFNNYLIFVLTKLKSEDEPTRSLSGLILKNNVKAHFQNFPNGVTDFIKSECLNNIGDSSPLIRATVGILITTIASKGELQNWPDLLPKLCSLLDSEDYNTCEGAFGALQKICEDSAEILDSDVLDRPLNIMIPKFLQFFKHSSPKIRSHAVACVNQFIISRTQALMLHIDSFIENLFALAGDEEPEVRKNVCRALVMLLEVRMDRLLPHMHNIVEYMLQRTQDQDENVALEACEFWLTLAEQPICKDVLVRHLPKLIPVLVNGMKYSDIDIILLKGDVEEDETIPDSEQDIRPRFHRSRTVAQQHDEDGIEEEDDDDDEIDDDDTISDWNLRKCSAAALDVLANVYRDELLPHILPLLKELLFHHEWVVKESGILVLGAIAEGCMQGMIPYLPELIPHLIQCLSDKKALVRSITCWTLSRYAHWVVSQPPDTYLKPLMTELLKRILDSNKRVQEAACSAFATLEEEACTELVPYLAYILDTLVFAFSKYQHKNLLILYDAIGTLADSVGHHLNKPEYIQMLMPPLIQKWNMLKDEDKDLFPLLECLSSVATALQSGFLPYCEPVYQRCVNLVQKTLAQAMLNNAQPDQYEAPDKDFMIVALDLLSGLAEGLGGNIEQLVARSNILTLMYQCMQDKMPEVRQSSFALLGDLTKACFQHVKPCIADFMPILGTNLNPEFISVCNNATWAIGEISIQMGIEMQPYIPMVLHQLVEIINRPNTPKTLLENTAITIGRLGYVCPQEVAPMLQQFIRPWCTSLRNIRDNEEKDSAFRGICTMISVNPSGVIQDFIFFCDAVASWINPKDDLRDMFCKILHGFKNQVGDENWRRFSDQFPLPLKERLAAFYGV
With G274A the “effect of a mutation on the interaction” value was “decreasing interaction”.

Variants of: B2
Settings: with tnpo1_human TNPO1, Q92973
In the case of P63A;Y64A, the “effect of a mutation on the interaction” value is reported as “decreasing interaction strength”.
